Values quoted from earlier work as cited in patent US20070141059A1, “Use of cathepsin s inhibitors for treating an immune response caused by administration of a small molecule therapeutic or biologic” (AXYS Pharmaceuticals, Inc., priority 2003, published 2007).
Values belong to the molecule of their own block, whether it stands above or below them.

Tests used:
[1] = patients taking heparin

Molecule: OKT3: murine monoclonal antibody directed towards CD-3 domain of activated T-cells
patients producing antibodies versus the therapy (in clinical trials): 20-40%

Molecule: Remicade®: biologic; biological agent that induces the production of specific immunoglobulins
patients generating neutralizing antibodies (patients taking the biologic): 10%

patients experiencing heparin induced thrombocytopenia (HIT) [1]: ~3%
Molecule: heparin

B1: Betaseron®: biologic; biological agent that induces the production of specific immunoglobulins (protein, UniProt P01574 22-187, looked up, variant C17S)
Interferon beta: MSYNLLGFLQRSSNFQSQKLLWQLNGRLEYCLKDRMNFDIPEEIKQLQQFQKEDAALTIYEMLQNIFAIFRQDSSSTGWNETIVENLLANVYHQINHLKTVLEEKLEKEDFTRGKLMSSLHLKRYYGRILHYLKAKEYSHCAWTIVRVEILRNFYFINRLTGYLRN
modifications: non-glycosylated, E. coli-expressed
notes: biologic; biological agent that induces the production of specific immunoglobulins
patients found to have serum-neutralizing activity (patients taking the biologic): 45%
